The record followed here is patent publication US20190359723A1 (CARSGEN THERAPEUTICS, published 2019).

Assay [1] concerns the target T1, IL-13RA2 huFc (human).
T1 construct: Expressed in 293F cells, purified on protein A; also called human IL13RA2; recombinant IL-13RA2
The assay can be described thus: SPR (Biacore T200), ligand IL13Ra2 on the chip, scFv_Fc as analyte at 6.25 to 100 nM, 1:1 binding fit, flow 30 ul/min. Here is the method: (§1) IL-13RA2 huFc was coated on the CMS chip by amino coupling, coated to about 500 RU, and the gradiently diluted antibodies were passed through the antigen-coated channel at a flow rate of 30 ul/min as a mobile phase. The running buffer was HBS-N and the temperature was 25° C. The experimental data was analyzed by BIAevaluation 3.2 and the kinetic curves were fitted using a 1:1 langmuir model.
(§2) Affinity was determined using the method of Example 5 using biacore T200, and the results are shown as in FIGS. 11B-11G. […] The association and dissociation constants of the antibodies are shown as in FIG. 11F.
Target sequence in this assay (chain, as listed by the source limits assumed): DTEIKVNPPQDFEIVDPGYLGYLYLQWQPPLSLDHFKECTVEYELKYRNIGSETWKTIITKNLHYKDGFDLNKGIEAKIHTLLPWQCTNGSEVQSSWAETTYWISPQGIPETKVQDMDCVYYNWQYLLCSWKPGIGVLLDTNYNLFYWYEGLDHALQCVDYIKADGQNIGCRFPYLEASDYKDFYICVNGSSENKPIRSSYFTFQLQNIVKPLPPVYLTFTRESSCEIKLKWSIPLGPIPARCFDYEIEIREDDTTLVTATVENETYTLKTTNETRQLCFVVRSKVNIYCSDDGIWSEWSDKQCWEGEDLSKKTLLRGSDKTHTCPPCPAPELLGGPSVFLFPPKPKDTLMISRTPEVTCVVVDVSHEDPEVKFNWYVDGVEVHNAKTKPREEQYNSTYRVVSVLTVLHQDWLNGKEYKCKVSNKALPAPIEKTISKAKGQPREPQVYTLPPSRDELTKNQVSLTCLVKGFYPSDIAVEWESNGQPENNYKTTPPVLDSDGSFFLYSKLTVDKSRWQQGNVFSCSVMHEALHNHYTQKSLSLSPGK

Assay [2] addresses T1, IL-13RA2 huFc. The assay can be described thus: SPR (Biacore T200), scFv_Fc forms on IL-13RA2 huFc, summary table. Here is the method: as §1, §2
Target sequence in this assay (chain, as listed by the source limits assumed): as above
For assay [3], the target named is T2, IL-13RA2 endogenously expressed on U251 cells (human, UniProt Q14627 27-380).
T2 construct: whole, on cells; also called U251 cells expressing IL13RA2; U251 (IL-13RA2-positive)
T2 sequence (looked up): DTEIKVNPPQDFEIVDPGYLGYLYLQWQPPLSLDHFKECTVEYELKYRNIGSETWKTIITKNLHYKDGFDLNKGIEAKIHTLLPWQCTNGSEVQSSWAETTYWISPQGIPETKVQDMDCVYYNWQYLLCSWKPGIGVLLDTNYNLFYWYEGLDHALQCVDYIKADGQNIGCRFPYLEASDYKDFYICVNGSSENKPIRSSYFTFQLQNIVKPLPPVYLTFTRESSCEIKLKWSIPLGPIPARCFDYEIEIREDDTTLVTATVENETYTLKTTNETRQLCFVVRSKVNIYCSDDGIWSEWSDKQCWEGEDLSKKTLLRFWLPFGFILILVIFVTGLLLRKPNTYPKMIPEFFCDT
The assay can be described thus: flow cytometry on U251 cells, scFv_Fc form, 5-fold dilutions from 2,000 nM, FITC anti-human IgG. Here is the method: Following the method of Example 6, cells were harvested, washed once with a growth medium, and resuspended in PBS, and the cell concentration was adjusted to 4E+5 cells/ml. The gradiently diluted scFv_Fc fusion antibody was incubated with the cells for 30 minutes on ice, and the antibody was 5-fold serially diluted with 2,000 nM as the initial concentration, into 11 gradients. Then the mixture was incubated with a FITC-labeled anti-human IgG secondary antibody. After two washing steps, detection was performed using a Guava easyCyte™ HT System instrument. […] There is also a 2-8 fold increase compared with the parent antibody.

Assay [4] concerns the target T1, IL-13RA2 huFc. Briefly: SPR (Biacore T200), ligand IL13Ra2 on the chip, scFv_Fc as analyte at 100, 50, 25 and 6.25 nM, 1:1 binding fit, flow 30 ul/min. Here is the method:
as §1, §2

The target of assay [5] is T1, IL-13RA2 huFc. Briefly: SPR (Biacore T200), nickel-purified scFv. The procedure:
as §1
Affinity purification was performed using a nickel column, affinity was measured using biacore T200, and the association and dissociation constants of the affinity matured antibodies are shown as in FIG. 10A.
Target sequence in this assay (chain, as listed by the source limits assumed): as the sequence (chain, as listed by the source limits assumed) above

Assay [6] addresses T1, IL-13RA2 huFc. The assay can be described thus: Biacore, induced supernatant of the scFv clone; parent 31C2.
Target sequence in this assay (chain, as listed by the source limits assumed): as the sequence (chain, as listed by the source limits assumed) above
Assay [7] deals with T1, IL-13RA2 huFc. The assay can be described thus: SPR (Biacore), induced scFv supernatant; column head: Dissociation constant Kd(S-1).
Target sequence in this assay (chain, as listed by the source limits assumed): as the sequence (chain, as listed by the source limits assumed) above

B1: 5D7 (scFv_Fc form) (Fc fusion)
scFv: EVQLLESGGGLVQPGGSLRLSCAASGFTFSNYAMSWVRQAPGKGLEWVSGIRSSGGRTFYADSVKGRFTISRDNSKNTLYLQMNSLRAEDTAVYYCARVAFSGSFDYWGQGTLVTVSSGGGGSGGGGSGGGGSDIQMTQSPSTLSASVGDRVTITCRASQSISSWLAWYQQKPGKAPKLLIYDASSLESGVPSRFSGSGSGTEFTLTISSLQPDDFATYYCQQRNRYPPTFGQGTKVEIK
notes: not shown: human Fc segment of the eukaryotic expression vector V152
B1: in assay [1], binding was characterised by a dissociation constant (Kd) of 0.335 nM, the koff is 0.000247 s⁻¹ and the kon was determined as 737000 M⁻¹ s⁻¹. In assay [2], this molecule showed a Kd of 0.335 nM, a koff of 0.000247 s⁻¹ and a kon of 737000 M⁻¹ s⁻¹. Moreover, in assay [3], the EC50 was 0.56 nM.

B2: 5G3 (scFv_Fc form) (Fc fusion)
scFv: EVQLLESGGGLVQPGGSLRLSCAASGFTFSSYVLSWVRQAPGKGLEWVSAIRGSAGNTYYADSVKGRFTISRDNSKNTLYLQMNSLRAEDTAVYYCARVAFSGSFDYWGQGTLVTVSSGGGGSGGGGSGGGGSDIQMTQSPSTLSASVGDRVTITCRASQSISSWLAWYQQKPGKAPKLLIYDASSLESGVPSRFSGSGSGTEFTLTISSLQPDDFATYYCQQRNRYPPTFGQGTKVEIK
notes: as for B1
Regarding B2, in assay [4], the Kd was found to be 0.194 nM, the koff was determined as 0.000134 s⁻¹ and the kon was 690000 M⁻¹ s⁻¹. In assay [2], this molecule gave a Kd of 0.194 nM, a koff of 0.000134 s⁻¹ and a kon of 690000 M⁻¹ s⁻¹. A half-maximal effect in assay [3] (EC50) was put at 0.53 nM.

B3: 1B11 (scFv_Fc form) (Fc fusion)
scFv: EVQLLESGGGLVQPGGSLRLSCAASGFTFSRDALNWVRQAPGKGLEWVSAISGSGGSTFYADSVKGRFTISRDNSKNTLYLQMNSLRAEDTAVYYCAKVRYGWGAGAFDYWGQGTLVTVSSGGGGSGGGGSGGGGSDIQMTQSPSTLSASVGDRVTITCRASQSISSWLAWYQQKPGKAPKLLIYDASSLESGVPSRFSGSGSGTEFTLTISSLQPDDFATYYCQQYDTYPPITFGQGTKVEIK
notes: as for B1
In assay [1], B3 came in with a Kd of 1.04 nM, a koff of 0.000263 s⁻¹ and a kon of 252000 M⁻¹ s⁻¹. Moreover, in assay [2], the equilibrium dissociation constant (Kd) came to 1.04 nM, the koff is 0.000263 s⁻¹ and the kon came out at 253000 M⁻¹ s⁻¹. Moreover, in assay [3], the EC50 was 0.47 nM.

B4: 1H7 (scFv) (scFv)
scFv: EVQLLESGGGLVQPGGSLRLSCAASGFTFRRYAMSWVRQAPGKGLEWVSGISGSGGGTYYADSVKGRFTISRDNSKNTLYLQMNSLRAEDTAVYYCAKVRYGWGAGAFDYWGQGTLVTVSSGGGGSGGGGSGGGGSDIQMTQSPSTLSASVGDRVTITCRASQSISSWLAWYQQKPGKAPKLLIYDASSLESGVPSRFSGSGSGTEFTLTISSLQPDDFATYYCQQYDTYPPITFGQGTKVEIK
notes: also called clone 1H7
With B4, in assay [5], the Kd came to 12.1 nM, the koff stood at 0.000765 s⁻¹ and the kon amounted to 63200 M⁻¹ s⁻¹. The “fold lower dissociation constant Kd than the parent clone” value in assay [6] was more than 10 times. Further, the koff in assay [7] came to 0.000888 s⁻¹.

B5: 1D11 (scFv) (scFv)
scFv: EVQLLESGGGLVQPGGSLRLSCAASGFTFGTIPMSWVRQAPGKGLEWVSSISGSAGSTYYADSVKGRFTISRDNSKNTLYLQMNSLRAEDTAVYYCAKVRYGWGAGAFDYWGQGTLVTVSSGGGGSGGGGSGGGGSDIQMTQSPSTLSASVGDRVTITCRASQSISSWLAWYQQKPGKAPKLLIYDASSLESGVPSRFSGSGSGTEFTLTISSLQPDDFATYYCQQYDTYPPITFGQGTKVEIK
notes: also called clone 1D11
As to B5, in assay [5], the Kd came out at 9.89 nM, the koff is 0.000386 s⁻¹ and the kon came out at 39000 M⁻¹ s⁻¹. The “fold lower dissociation constant Kd than the parent clone” value in assay [6] was more than 10 times. Moreover, in assay [7], the koff turned out to be 0.000677 s⁻¹.

B6: 2C7 (scFv) (scFv)
scFv: EVQLLESGGGLVQPGGSLRLSCAASGFTFKLPAMSWVRQAPGKGLEWVSAITGSGGSTYYADSVKGRFTISRDNSKNTLYLQMNSLRAEDTAVYYCAKVRYGWGAGAFDYWGQGTLVTVSSGGGGSGGGGSGGGGSDIQMTQSPSTLSASVGDRVTITCRASQSISSWLAWYQQKPGKAPKLLIYDASSLESGVPSRFSGSGSGTEFTLTISSLQPDDFATYYCQQYDTYPPITFGQGTKVEIK
notes: also called clone 2C7
In assay [5], B6 displayed a Kd of 5.42 nM, a koff of 0.00041 s⁻¹ and a kon of 75700 M⁻¹ s⁻¹. Besides, in assay [6], the “fold lower dissociation constant Kd than the parent clone” value was 10 times. For the same molecule, the koff in assay [7] was 0.000501 s⁻¹.

B7: 2A5 (scFv) (scFv)
scFv: EVQLLESGGGLVQPGGSLRLSCAASGFTFSRYAMNWVRQAPGKGLEWVSAISASGGGTYYADSVKGRFTISRDNSKNTLYLQMNSLRAEDTAVYYCAKVRYGWGAGAFDYWGQGTLVTVSSGGGGSGGGGSGGGGSDIQMTQSPSTLSASVGDRVTITCRASQSISSWLAWYQQKPGKAPKLLIYDASSLESGVPSRFSGSGSGTEFTLTISSLQPDDFATYYCQQYDTYPPITFGQGTKVEIK
notes: also called clone 2A5
In assay [5], B7 returned a Kd of 15.5 nM, a koff of 0.000656 s⁻¹ and a kon of 42400 M⁻¹ s⁻¹. Besides, the “fold lower dissociation constant Kd than the parent clone” value in assay [6] was more than 10 times. The molecule further had a koff in assay [7] of 0.000788 s⁻¹.

B8: 2C7 (scFv_Fc form) (Fc fusion)
scFv: EVQLLESGGGLVQPGGSLRLSCAASGFTFKLPAMSWVRQAPGKGLEWVSAITGSGGSTYYADSVKGRFTISRDNSKNTLYLQMNSLRAEDTAVYYCAKVRYGWGAGAFDYWGQGTLVTVSSGGGGSGGGGSGGGGSDIQMTQSPSTLSASVGDRVTITCRASQSISSWLAWYQQKPGKAPKLLIYDASSLESGVPSRFSGSGSGTEFTLTISSLQPDDFATYYCQQYDTYPPITFGQGTKVEIK
notes: as for B1
In assay [1], B8 yielded a dissociation constant Kd of 0.248 nM, a koff of 9.15e-05 s⁻¹ and a kon of 369000 M⁻¹ s⁻¹. Further, in assay [2], binding was put at a Kd of 0.248 nM, the koff is 9.15e-05 s⁻¹ and the kon was determined as 369000 M⁻¹ s⁻¹. In assay [3], the EC50 stood at 0.57 nM.

B9: 1D8 (scFv) (scFv)
scFv: EVQLLESGGGLVQPGGSLRLSCAASGFTFSRYAMNWVRQAPGKGLEWVSAINASGGSTYYADSVKGRFTISRDNSKNTLYLQMNSLRAEDTAVYYCAKVRYGWGAGAFDYWGQGTLVTVSSGGGGSGGGGSGGGGSDIQMTQSPSTLSASVGDRVTITCRASQSISSWLAWYQQKPGKAPKLLIYDASSLESGVPSRFSGSGSGTEFTLTISSLQPDDFATYYCQQYDTYPPITFGQGTKVEIK
notes: also called clone 1D8
Regarding B9, in assay [5], the Kd was determined as 13.8 nM, the koff worked out at 0.000911 s⁻¹ and the kon turned out to be 66000 M⁻¹ s⁻¹. Besides, the “fold lower dissociation constant Kd than the parent clone” value in assay [6] was more than 10 times. This molecule yielded a koff in assay [7] of 0.00094 s⁻¹.

B10: 2D4 (scFv_Fc form) (Fc fusion)
scFv: EVQLLESGGGLVQPGGSLRLSCAASGFTFRKYAMGWVRQAPGKGLEWVSGISGSVGSTYYADSVKGRFTISRDNSKNTLYLQMNSLRAEDTAVYYCAKVRYGWGAGAFDYWGQGTLVTVSSGGGGSGGGGSGGGGSDIQMTQSPSTLSASVGDRVTITCRASQSISSWLAWYQQKPGKAPKLLIYDASSLESGVPSRFSGSGSGTEFTLTISSLQPDDFATYYCQQYDTYPPITFGQGTKVEIK
notes: as for B1
Regarding B10, in assay [1], binding was characterised by a dissociation constant (Kd) of 0.174 nM, the koff came to 0.000113 s⁻¹ and the kon is 646000 M⁻¹ s⁻¹. In assay [2], this molecule gave a Kd of 0.174 nM, a koff of 0.000113 s⁻¹ and a kon of 646000 M⁻¹ s⁻¹. This molecule showed an EC50 in assay [3] of 0.37 nM.
